Target: human FGFR1c/KLB receptor complex on cells (human) (UniProt P11362)
Assay: cell-based or functional assay

Sequence of human FGFR1c/KLB receptor complex on cells (human) (P11362 other isoform, or with tags, fused parts or gaps limits assumed, chain 1 of 2): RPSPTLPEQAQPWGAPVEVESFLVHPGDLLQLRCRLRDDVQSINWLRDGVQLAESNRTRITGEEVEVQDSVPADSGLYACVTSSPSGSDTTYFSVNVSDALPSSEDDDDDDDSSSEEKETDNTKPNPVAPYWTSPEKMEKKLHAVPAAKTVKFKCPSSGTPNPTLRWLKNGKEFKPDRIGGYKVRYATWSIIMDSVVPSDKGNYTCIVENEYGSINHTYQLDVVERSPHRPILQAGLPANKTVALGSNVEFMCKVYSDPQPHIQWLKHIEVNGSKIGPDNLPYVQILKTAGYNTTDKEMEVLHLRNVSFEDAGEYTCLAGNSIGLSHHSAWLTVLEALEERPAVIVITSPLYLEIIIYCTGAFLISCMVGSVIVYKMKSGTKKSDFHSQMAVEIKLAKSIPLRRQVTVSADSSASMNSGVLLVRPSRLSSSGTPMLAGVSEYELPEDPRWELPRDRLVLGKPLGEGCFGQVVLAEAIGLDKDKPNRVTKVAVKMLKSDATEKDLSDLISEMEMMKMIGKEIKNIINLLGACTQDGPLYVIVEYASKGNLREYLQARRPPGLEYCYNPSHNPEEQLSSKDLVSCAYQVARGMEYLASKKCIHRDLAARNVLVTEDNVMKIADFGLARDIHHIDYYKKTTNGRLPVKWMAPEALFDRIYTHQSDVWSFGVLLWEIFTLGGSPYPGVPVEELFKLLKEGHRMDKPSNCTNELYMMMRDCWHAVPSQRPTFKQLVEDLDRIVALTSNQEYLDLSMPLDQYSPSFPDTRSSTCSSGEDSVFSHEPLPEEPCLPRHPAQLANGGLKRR
Sequence of human FGFR1c/KLB receptor complex on cells (human) (chain, as listed by the source limits assumed, chain 2 of 2): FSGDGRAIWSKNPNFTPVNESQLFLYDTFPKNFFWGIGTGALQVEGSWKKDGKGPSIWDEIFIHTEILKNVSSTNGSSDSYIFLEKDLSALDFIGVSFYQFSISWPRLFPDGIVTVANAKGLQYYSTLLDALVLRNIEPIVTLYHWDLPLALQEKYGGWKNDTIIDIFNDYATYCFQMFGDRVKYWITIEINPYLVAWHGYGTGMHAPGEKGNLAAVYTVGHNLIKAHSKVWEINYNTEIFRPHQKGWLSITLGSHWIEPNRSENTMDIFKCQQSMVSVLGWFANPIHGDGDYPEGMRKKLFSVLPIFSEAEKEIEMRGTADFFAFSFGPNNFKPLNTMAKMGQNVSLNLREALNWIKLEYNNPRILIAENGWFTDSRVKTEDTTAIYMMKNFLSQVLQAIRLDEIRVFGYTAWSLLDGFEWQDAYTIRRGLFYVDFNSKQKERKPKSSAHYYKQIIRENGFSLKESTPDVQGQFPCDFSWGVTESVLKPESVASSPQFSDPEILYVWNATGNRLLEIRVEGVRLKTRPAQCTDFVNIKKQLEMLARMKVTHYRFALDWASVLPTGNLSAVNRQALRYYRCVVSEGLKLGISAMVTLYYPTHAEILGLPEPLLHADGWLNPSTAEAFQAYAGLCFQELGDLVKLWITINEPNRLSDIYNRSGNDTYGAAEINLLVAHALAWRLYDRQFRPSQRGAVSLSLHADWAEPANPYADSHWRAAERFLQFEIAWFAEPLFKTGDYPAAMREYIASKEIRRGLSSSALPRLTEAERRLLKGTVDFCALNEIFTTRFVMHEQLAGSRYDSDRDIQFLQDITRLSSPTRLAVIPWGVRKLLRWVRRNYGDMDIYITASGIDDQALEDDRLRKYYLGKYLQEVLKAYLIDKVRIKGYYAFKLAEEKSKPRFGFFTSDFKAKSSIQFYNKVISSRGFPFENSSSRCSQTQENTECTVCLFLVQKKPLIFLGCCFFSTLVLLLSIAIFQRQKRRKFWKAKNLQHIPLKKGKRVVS

REGN1438 (6His-FGF21) (from UniProt Q9NSA1 29-209) (ligand)
% Act: 100% | EC50: 2.9 nM | Percent Activity %: 100%

Reference: patent US20220372168A1
